Laboratory results from patent US20020115066A1, “Viral therapeutics” (priority 1998, published 2002).

How the values were obtained:
ADRP [1] = details: cited from earlier work
lipid droplets = experiment: Intracellular localization of core proteins and lipid droplets (indirect immunofluorescence, oil red O, confocal microscopy); assay type: cell-based, hamster; details: BHK C13 cells, 20 hours after electroporation, antibody JM122 and oil red O
Description: BHK C13 cells were harvested 20 hours after electroporation and fixed with 4% paraformaldehyde, 0.1% Triton X-100. Indirect immunofluorescence was performed with antibody JM122 and an anti-mouse secondary antibody conjugated with FITC. Lipid droplets were stained with oil red O. Panels A, D, G, J, M, P, S and V show the distributions of core protein. Panels B, E, H, K, N, Q, T and W show the locations of lipid droplets. Panels C, F, I, L, O, R, U and X are merged images of core protein and lipid droplets. Cells were electroporated with RNA from the following constructs: panels A, B and C, pSFV.1-195; panels D, E and F, pSFV.1-173; panels G, H and I, pSFV.1-169; panels J, K and L, pSFV.1-153; panels M, N and O, pSFV.Δ155-161; panels P, Q and R, pSFV.Δ161-166; panels S, T and U, pSFVA125-144; panels V, W and X, pSFV.1-124, 145-152.
(§1) 0.8 ml of competent cells were mixed with in vitro transcribed RNA in an electroporation cuvette (0.4 cm gap) and pulsed twice at either 1.2 kV, 25 μF (for BHK C13 cells) or 0.36 kV, 960 μF (for MCA RH7777 cells). Between pulses, the cell/RNA suspension was gently mixed. Following electroporation, cells were diluted in growth medium and seeded onto either tissue culture dishes or coverslips in 24-well tissue culture plates and then incubated at 37° C.
(§2) Cells on 13 mm coverslips were fixed in either methanol at −20° C. or 4% paraformaldehyde, 0.1% Triton X-100 (prepared in PBS) at 4° C. for 30 mins. Following washing with PBS and blocking with PBS/CS (PBS containing 1% newborn calf serum), cells were incubated with primary antibody (diluted in PBS/CS at 1/200 for JM122 antibody, 1/1000 for 308 antisera and 1/100 for adipophilin antibody) for 2 hours at room temperature. Cells were washed extensively with PBS/CS and then incubated with conjugated secondary antibody (either anti-mouse or anti-rabbit IgG raised in goat) for 2 hours at room temperature. Cells were washed extensively in solutions of PBS/CS followed by PBS and finally H2O before mounting on slides using Citifluor. Samples were analyzed using a Leiss LSM confocal microscope.
Following incubation with both antibodies and washing, lipid droplets were stained in paraformaldehyde-fixed cells by briefly rinsing coverslips in 60% propan-2-ol followed by incubation with 0.5 ml 60% propan-2-ol containing oil red O for 1.5-2 mins at room temperature. Coverslips were briefly rinsed with 60% propan-2-ol, washed with PBS and H2O and mounted as described above. The oil red O staining solution was prepared from a saturated stock of approximately 1% oil red O dissolved in propan-2-ol. Before staining, the stock was diluted with H2O and then filtered.
This conclusion was arrived at by combining the techniques of immune electron microscopy with the ability to stain lipid with osmium tetroxide. However, this method suffers from the disadvantages that it is time-consuming and osmium tetroxide can stain other biological molecules (e.g. proteins) in addition to lipid. Therefore, we developed a method for detecting proteins firstly by indirect immunofluorescence followed by staining of lipid droplets with the oil-soluble colorant oil red O. Combined with the method of confocal microscopy, it is possible to visualize the intracellular localizations of core protein and lipid droplets separately and together. Here, BHK C13 cells have been electroporated with pSFV.1-195 RNA and, following incubation at 37° C. for 20 hours, the cells have been examined by both indirect immunofluorescence and staining with oil red O. In panel A, the core protein produced by pSFV.1-195 is seen to locate to vesicular structures in the cytoplasm.

ADRP [2] = experiment: Effect of expression of core proteins on the ability to detect ADRP in BHK C13 cells by confocal microscopy; assay type: cell-based, hamster; details: 20 hours after electroporation, anti-adipophilin antibody
Description: Cells were harvested 20 hours after electroporation and fixed with methanol. ADRP was detected with anti-adipophilin antibody and core protein with 308 antisera. Secondary antibodies were an anti-mouse IgG conjugated with FITC (for anti-adipophilin) and anti-rabbit IgG conjugated with Cy5 (for 308 antisera). Panels A, D, G, J, M and P are images of ADRP localization. Panels B, E, H, K, N, and Q are images of core distribution. Panels C, F, I, L, O and R show the merged images of core and ADRP distributions. Cells were electroporated with RNA from the following constructs: panels A, B and C, pSFV.1-195; panels D, E and F, pSFV.1-173; panels G, H and I, pSFV.1-169; panels J, K and L, pSFV.1-153; panels M, N and O, pSFV.Δ155-161; panels P, Q and R, pSFV.Δ161-166.
as §1, §2

ADRP [3] = experiment: Effect of expression of core protein on the abundance of ADRP (Western blot); assay type: cell-based, hamster; details: BHK C13 cells, extracts at various times following electroporation
Description: BHK C13 cells were electroporated with RNA from pSFV.1-195 and pSFV.1-153 and extracts were prepared at the times indicated following electroporation. Aliquots of cell extracts were electrophoresed on 10% polyacrylamide gels and then the proteins were transferred to nitrocellulose membrane for Western blot analysis. The upper panels show membranes probed with JM122 antibody while, in the lower panels, membranes were probed with anti-adipophilin antibody. Bands corresponding to core proteins, expressed from pSFV.1-195 and pSFV.1-153, and ADRP are arrowed.
To prepare extracts, electroporated cells were harvested by removing the growth medium and washing the cell monolayers with PBS. Cells were scraped into PBS and pelleted by centrifugation at 100 g for 5 mins at 4° C. The cell pellet was solubilized in sample buffer consisting of 160 mM Tris (pH 6.7), 2% SDS, 700 mM β-mercaptoethanol, 10% glycerol, 0.004% bromophenol blue.
For Western blot analysis, proteins were separated on polyacrylamide gels and transferred to nitrocellulose membrane using standard techniques. The nitrocellulose membrane was blocked in 3% gelatin, 20 mM Tris (pH 7.5), 500 mM NaCl for at least 6 hours at 37° C. prior to incubation with the primary antibody. […] Bound antibody was detected by enhanced chemiluminescence.

Row | Molecule | ADRP expression (ADRP [1]) | intracellular localization of core protein relative to lipid droplets (lipid droplets) | ADRP detected by immunofluorescence in core-expressing cells (ADRP [2]) | abundance of ADRP by Western blot (ADRP [3])
1 | COc1ccc2c(c1)c(CC(=O)O)c(C)n2C(=O)c1ccc(Cl)cc1 [indomethacin] | stimulate ADRP expression | – | – | –
2 | CC(C)Cc1ccc(C(C)C(=O)O)cc1 (stereo not drawn) [ibuprofen] | stimulate ADRP expression | – | – | –
3 | pSFV.Δ125-144: construct expressing a core variant in which residues 125 to 144 had been deleted (protein) GACECPGRSRRPCTMSTNPKPQRKTKRNTNRRPQDVKFPGGGQIVGGVYLLPRRGPRLGVRATRKTSERSQPRGRRQPIPKARRPKGRNWAQPGYPWPLYGNEGCGWAGWLLSPSGSRPSWGPNVDLMGYIPLVGAPLRGAARALAHGVRVLEDGVNYATGNLPGCSFSIFLLAL | – | diffuse fluorescence | – | –
4 | pSFV.1-169: SFV construct encoding amino acid residues 1-169 of HCV strain Glasgow core (protein) GACECPGRSRRPCTMSTNPKPQRKTKRNTNRRPQDVKFPGGGQIVGGVYLLPRRGPRLGVRATRKTSERSQPRGRRQPIPKARRPKGRNWAQPGYPWPLYGNEGCGWAGWLLSPSGSRPSWGPNDPRRRSRNLGKVIDTLTCGFVDLMGYIPLVGAPLRGAARALAHGV | – | continue to locate to lipid droplets | barely detectable | –
5 | pSFV.1-153: SFV construct encoding amino acid residues 1-153 of HCV strain Glasgow core (protein) GACECPGRSRRPCTMSTNPKPQRKTKRNTNRRPQDVKFPGGGQIVGGVYLLPRRGPRLGVRATRKTSERSQPRGRRQPIPKARRPKGRNWAQPGYPWPLYGNEGCGWAGWLLSPSGSRPSWGPNDPRRRSRNLGKVIDTLTCGFVDLMGYIPL | – | do not associate with lipid droplets | readily found | no change in the abundance of ADRP
6 | pSFV.1-124,145-152: core variant truncated at residue 152 and lacking amino acids 125 to 144 (protein) GACECPGRSRRPCTMSTNPKPQRKTKRNTNRRPQDVKFPGGGQIVGGVYLLPRRGPRLGVRATRKTSERSQPRGRRQPIPKARRPKGRNWAQPGYPWPLYGNEGCGWAGWLLSPSGSRPSWGPNVDLMGYIP | – | diffuse fluorescence | – | –
7 | pSFV.1-173: SFV construct encoding amino acid residues 1-173 of HCV strain Glasgow core (protein) GACECPGRSRRPCTMSTNPKPQRKTKRNTNRRPQDVKFPGGGQIVGGVYLLPRRGPRLGVRATRKTSERSQPRGRRQPIPKARRPKGRNWAQPGYPWPLYGNEGCGWAGWLLSPSGSRPSWGPNDPRRRSRNLGKVIDTLTCGFVDLMGYIPLVGAPLRGAARALAHGVRVLE | – | continue to locate to lipid droplets | barely detectable | –
8 | pSFV.Δ161-166: construct lacking the sequences encoding residues 161 to 166 of the core protein of HCV strain Glasgow (protein) GACECPGRSRRPCTMSTNPKPQRKTKRNTNRRPQDVKFPGGGQIVGGVYLLPRRGPRLGVRATRKTSERSQPRGRRQPIPKARRPKGRNWAQPGYPWPLYGNEGCGWAGWLLSPSGSRPSWGPNDPRRRSRNLGKVIDTLTCGFVDLMGYIPLVGAPLRGHGVRVLEDGVNYATGNLPGCSFSIFLLAL | – | diffuse cytoplasmic pattern | readily found | –
9 | pSFV.Δ155-161: construct lacking the sequences encoding residues 155 to 161 of the core protein of HCV strain Glasgow (protein) GACECPGRSRRPCTMSTNPKPQRKTKRNTNRRPQDVKFPGGGQIVGGVYLLPRRGPRLGVRATRKTSERSQPRGRRQPIPKARRPKGRNWAQPGYPWPLYGNEGCGWAGWLLSPSGSRPSWGPNDPRRRSRNLGKVIDTLTCGFVDLMGYIPLVARALAHGVRVLEDGVNYATGNLPGCSFSIFLLAL | – | did not affect lipid droplet association | barely detectable | –
10 | pSFV.1-195: SFV construct encoding the N-terminal 195 amino acids of HCV strain Glasgow (core protein) (protein) GACECPGRSRRPCTMSTNPKPQRKTKRNTNRRPQDVKFPGGGQIVGGVYLLPRRGPRLGVRATRKTSERSQPRGRRQPIPKARRPKGRNWAQPGYPWPLYGNEGCGWAGWLLSPSGSRPSWGPNDPRRRSRNLGKVIDTLTCGFVDLMGYIPLVGAPLRGAARALAHGVRVLEDGVNYATGNLPGCSFSIFLLAL | – | sited around the lipid droplets | either lacked or contained barely detectable amounts of ADRP | rapid reduction in ADRP levels to barely detectable quantities
